Assay results as given in doi:10.1101/2020.04.07.028951 (bioRxiv, 2020).

Tests used:
[1] = target: Clostridium novyi CBS-PPase (cnPPase) (Clostridium novyi); assay: AUC
[2] = target: Clostridium novyi CBS-PPase (cnPPase) (Clostridium novyi); assay: cross-linking
[3] = target: Ethanoligenens harbinense CBS-PPase (ehPPase) (Ethanoligenens harbinense); assay: AUC
[4] = target: Ethanoligenens harbinense CBS-PPase (ehPPase) (Ethanoligenens harbinense); assay: cross-linking
[5] = target: Eggerthella lenta CBS-PPase (elPPase) (Eggerthella lenta); assay: AUC
[6] = target: dhPPaseΔCDC, separate catalytic part of D. hafniense CBS-PPase (Desulfitobacterium hafniense); assay: enzyme activity after dilution
[7] = target: dhPPaseΔCDC, separate catalytic part of D. hafniense CBS-PPase (Desulfitobacterium hafniense); assay: AUC
[8] = target: dhPPaseΔCDC, separate catalytic part of D. hafniense CBS-PPase (Desulfitobacterium hafniense); assay: cross-linking
[9] = target: dhCDC, separate regulatory part of dhPPase (residues 63-306) (Desulfitobacterium hafniense); assay: AUC
[10] = target: dhCDC, separate regulatory part of dhPPase (residues 63-306) (Desulfitobacterium hafniense); assay: AUC; remark: listed apart in the source
[11] = target: dhCDC, separate regulatory part of dhPPase (residues 63-306) (Desulfitobacterium hafniense); assay: cross-linking
[12] = target: Desulfitobacterium hafniense CBS-PPase (dhPPase), full-size (Desulfitobacterium hafniense); assay: enzyme activity after dilution
[13] = target: Desulfitobacterium hafniense CBS-PPase (dhPPase), full-size (Desulfitobacterium hafniense); assay: AUC
[14] = target: Desulfitobacterium hafniense CBS-PPase (dhPPase), full-size (Desulfitobacterium hafniense); assay: cross-linking
cross-linking = target: the molecule itself; assay: cross-linking

Molecule: Clostridium novyi CBS-PPase (cnPPase) (enzyme)
- stoichiometry N [1]: 4
- stoichiometry N [2]: 4

Molecule: Ethanoligenens harbinense CBS-PPase (ehPPase) (enzyme)
- stoichiometry N [3]: 4
- stoichiometry N [4]: 2

Molecule: Eggerthella lenta CBS-PPase (elPPase) (enzyme)
- stoichiometry N [5]: 4

Molecule: dhPPaseΔCDC, separate catalytic part of D. hafniense CBS-PPase (enzyme)
- koff [6]: 0.04 s⁻¹
- percent dimeric at 5.8 µM [6]: 37%
- stoichiometry N [7]: 2
- stoichiometry N [8]: 2

Molecule: dhCDC, separate regulatory part of dhPPase (residues 63-306) (domain or fragment)
- stoichiometry N [9]: 2
- stoichiometry N [10]: 2
- stoichiometry N [11]: 2

Molecule: Desulfitobacterium hafniense CBS-PPase (dhPPase), full-size (enzyme)
- percent dissociated at 3 µM [12]: 10%
- percent tetrameric at 1 µM [12]: 79%
- stoichiometry N [13]: 4
- stoichiometry N [14]: 4

B1: Clostridium perfringens CBS-PPase (cpPPase) (enzyme)
chain: MKDVIYITGHKNPDSDSICAALAYAEFKNKTQDTPAIPVRLGNVSQETQYILDYFGVEAPQFLETVKLKVEDLEMDKIAPLAPEVSLKMAWNIMRDKNLKSIPVADGNNHLLGMLSTSNITATYMDIWDSNILAKSATSLDNILDTLSAEAQNINEERKVFPGKVVVAAMQAESLKEFISEGDIAIAGDRAEIQAELIELKVSLLIVTGGHTPSKEIIELAKKNNITVITTPHDSFTASRLIVQSLPVDYVMTKDNLVAVSTDDLVEDVKVTMSETRYSNYPVIDENNKVVGSIARFHLISTHKKKVIQVDHNERGQSVHGLEDAEVLEIIDHHRVADIQTGNPIYFRNEPLGSTSTIVAKRFFENGIRPSREAAGLLCGAIISDTLLFKSPTCTPQDVKMCRKLAEIAGIVPETFAKEMFKAGTSLKGKSIEEIFNADFKPFTIEGVKVGVAQVNTMDIEGFMPLKGEMLDYMNQKAESMGLEMIMLLLTDIINEGSQILVAGRSPEIAEEAFKVKLEDSTTFLPGVLSRKKQVVPPLTQIITTRVSK
- stoichiometry N (cross-linking): 4
